# Assay results from US20170152299A1 (GUANGZHOU SHENGLU BIOTECH, published 2017).
# Substitutions are numbered along the chain they refer to. Numbers in names are those of the source.
# T1: FGF7 (UniProt P21781 32-194)
# T1 construct: Bought reagent; also called KGF
# T1 sequence (looked up): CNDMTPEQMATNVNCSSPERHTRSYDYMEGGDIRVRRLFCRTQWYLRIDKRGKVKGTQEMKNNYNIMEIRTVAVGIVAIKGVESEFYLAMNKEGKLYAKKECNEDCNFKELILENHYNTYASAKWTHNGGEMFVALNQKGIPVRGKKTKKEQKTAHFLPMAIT
# B1: truncated protein of the wild-type FGFR2b extracellular fragment (SEQ ID NO: 8) (receptor)
# chain: KRAPYWTNTEKMEKRLHAVPAANTVKFRCPAGGNPMPTMRWLKNGKEFKQEHRIGGYKVRNQHWSLIMESVVPSDKGNYTCVVENEYGSINHTYHLDVVERSPHRPILQAGLPANASTVVGGDVEFVCKVYSDAQPHIQWIKHVEKNGSKYGPDGLPYLKVLKHSGINSSNAEVLALFNVTEADAGEYICKVSNYIGQANQSAWLTVLPKQQAPGR
# notes: also called truncated FGFR2b extracellular fragment, wild type
# B2: truncated protein of P253R mutant-type FGFR2b extracellular fragment (SEQ ID NO: 12) (receptor)
# chain: B1 chain with P103R
# notes: also called truncated FGFR2b extracellular fragment, P253R mutant type
# B3: truncated protein of S252W mutant-type FGFR2b extracellular fragment (SEQ ID NO: 10) (receptor)
# chain: B1 chain with S102W
# notes: also called truncated FGFR2b extracellular fragment, S252W mutant type
# Target: T1, FGF7
# Test: isothermal titration calorimetry; FGF7 titrated into the truncated FGFR2b extracellular fragment in the sample cell (Example 8)
# Protocol: The three types of the FGFR2b extracellular fragments and FGF7 (purchased from Millipore) were dialysed respectively with iTC buffer (0.15 mol/L NaCl and 5% glycerol in 20 mmol/L Na₂HPO₄-citrate buffer, pH 7.2). The proteins after the dialysis was centrifuged at 4° C. and 18000 rpm for 30 min before the iTC experiment.
# 400 ul 35 μmol/L of each of the three types of the FGFR2b extracellular fragments was added to the sample pool, respectively, and titrated with 200 μl 93 μmol/LFGF7 at 2 μl per time at a 2.5 min interval for a total of 20 drops.
row,Binder,Ka
1,B1,8.74e+06 M⁻¹
2,B2,3.94e+07 M⁻¹
3,B3,1.26e+08 M⁻¹
